doi:10.1101/2022.11.03.515015
Values joined by “and” are separate entries in the source; they are usually repeats but may differ in a detail not shown here. Equal entries are not always repeated.

Tests used:
Details in all cases: remark: other sources report otherwise
[1] = molecular target: full-length human UBR5 (construct for single-particle analysis: 10xHis, 3C site, UBR5, double strep tag) (human) (UniProt O95071); test: mass photometry
[2] = molecular target: full-length human UBR5 (construct for single-particle analysis: 10xHis, 3C site, UBR5, double strep tag) (human) (UniProt O95071); test: cryo-EM structure
[3] = molecular target: full-length human UBR5 (construct for single-particle analysis: 10xHis, 3C site, UBR5, double strep tag) (human) (UniProt O95071); test: mass photometry; remark: listed apart in the source

stoichiometry N [1]: 2
stoichiometry N [2]: 4 and 2
stoichiometry N [3]: 4
Substance: full-length human UBR5 (construct for single-particle analysis: 10xHis, 3C site, UBR5, double strep tag), O95071 1-2799
